Data from patent publication US20230061838A1 (SORRENTO THERAPEUTICS, published 2023).

Target: T1, CD20 antigen (UniProtKB P11836 - gene MS4A1), on Daudi cells (Homo sapiens, UniProt P11836 1-297)
T1 sequence: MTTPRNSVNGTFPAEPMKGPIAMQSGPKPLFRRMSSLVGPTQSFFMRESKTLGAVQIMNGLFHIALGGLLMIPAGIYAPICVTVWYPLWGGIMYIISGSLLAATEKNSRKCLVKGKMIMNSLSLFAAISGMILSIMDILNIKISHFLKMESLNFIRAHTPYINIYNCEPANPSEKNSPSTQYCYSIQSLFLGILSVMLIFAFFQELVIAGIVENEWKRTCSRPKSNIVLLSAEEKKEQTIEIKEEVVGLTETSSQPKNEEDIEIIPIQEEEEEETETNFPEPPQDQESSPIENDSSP
Experiment: cell-based or functional assay

fold-change of expansion over four days of co-culture: > 10 fold
B1: anti-CD20 dimeric antigen receptor (CD20 DAR), expressed on primary human T cells (other)
heavy: QVQLQQPGAELVKPGASVKMSCKASGYTFTSYNMHWVKQTPGRGLEWIGAIYPGNGDTSYNQKFKGKATLTADKSSSTAYMQLSSLTSEDSAVYYCARSTYYGGDWYFNVWGAGTTVTVSAASTKGPSVFPLAPSSKSTSGGTAALGCLVKDYFPEPVTVSWNSGALTSGVHTFPAVLQSSGLYSLSSVVTVPSSSLGTQTYICNVNHKPSNTKVDKRVEPKSCDKTHTPRKIEVMYPPPYLDNEKSNGTIIHVKGKHLCPSPLFPGPSKPFWVLVVVGGVLACYSLLVTVAFIIFWVKRGRKKLLYIFKQPFMRPVQTTQEEDGCSCRFPEEEEGGCELRVKFSRSADKGERRRGKGHDGLYQGLSTATKDTYDALHMQALPPR
light: QIVLSQSPAILSASPGEKVTMTCRASSSVSYIHWFQQKPGSSPKPWIYATSNLASGVPVRFSGSGSGTSYSLTISRVEAEDAATYYCQQWTSNPPTFGGGTKLEIKRTVAAPSVFIFPPSDEQLKSGTASVVCLLNNFYPREAKVQWKVDNALQSGNSQESVTEQDSKDSTYSLSSTLTLSKADYEKHKVYACEVTHQGLSSPVTKSFNRGEC
